# Measurements reported in PMC11178898, “A clade of receptor-like cytoplasmic kinases and 14-3-3 proteins coordinate inositol hexaphosphate accumulation” (Nature Communications, 2024).
# T1: IPK1-HIS (Arabidopsis thaliana, UniProt Q93YN9 1-451)
# T1 construct: IPK1, inositol polyphosphate kinase, Arabidopsis thaliana; the CDS was cloned into pCOLD-TF; source: E. coli BL21 (DE3), pCOLD-TF, purified
# T1 sequence (looked up): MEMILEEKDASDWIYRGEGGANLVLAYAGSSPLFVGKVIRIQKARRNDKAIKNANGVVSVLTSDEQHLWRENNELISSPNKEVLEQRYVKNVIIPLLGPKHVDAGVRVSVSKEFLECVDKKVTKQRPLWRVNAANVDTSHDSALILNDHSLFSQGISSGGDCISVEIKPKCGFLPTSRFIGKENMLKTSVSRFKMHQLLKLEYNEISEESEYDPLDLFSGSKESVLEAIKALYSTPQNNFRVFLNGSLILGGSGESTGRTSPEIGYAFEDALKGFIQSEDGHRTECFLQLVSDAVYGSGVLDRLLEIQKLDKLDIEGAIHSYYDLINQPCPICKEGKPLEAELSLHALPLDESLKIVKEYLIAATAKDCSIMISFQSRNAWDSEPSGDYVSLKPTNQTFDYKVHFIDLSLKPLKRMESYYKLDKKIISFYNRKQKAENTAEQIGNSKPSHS
# Assays:
# IPK2β, Split-LUC fusion = assay: Split-LUC; details: cluc-IPK2β, 35S::IPCK1-flag co-infiltrated (1:1:2), parent value is P2 (nluc-GRF4, cluc-IPK2β …), parent: 7442.09
# IPK1-HIS = target: T1, IPK1-HIS; assay: pull-down; in vitro; GST- and HIS-tagged proteins from E. coli BL21 (DE3); bait on GST or Ni-NTA beads, incubated with the protein of the other tag on ice for 2 h, washed with PBS, blot with anti-HIS and anti-GST; details: both partners purified
molecule,measurement,setting,value
"GRF4, Split-LUC fusion (from UniProt P46077) S242A",response (cps (average)),"IPK2β, Split-LUC fusion; P3: nluc-GRF4 S242A, Total cps 452167, Areas 116.3",3890
"GRF4, Split-LUC fusion (from UniProt P46077) S242D",response (cps (average)),"IPK2β, Split-LUC fusion; P4: nluc-GRF4 S242D, Total cps 2045502, Areas 266",7690
"GRF4-GST (natural protein, Arabidopsis thaliana, UniProt P46077 1-267, looked up, GRF4, 14-3-3 protein, Arabidopsis thaliana; the CDS was cloned into pGEX-4T-1; source: E. coli BL21 (DE3), held on GST beads) MAAPPASSSAREEFVYLAKLAEQAERYEEMVEFMEKVAEAVDKDELTVEERNLLSVAYKNVIGARRASWRIISSIEQKEESRGNDDHVTTIRDYRSKIESELSKICDGILKLLDTRLVPASANGDSKVFYLKMKGDYHRYLAEFKTGQERKDAAEHTLTAYKAAQDIANAELAPTHPIRLGLALNFSVFYYEILNSPDRACNLAKQAFDEAIAELDTLGEESYKDSTLIMQLLRDNLTLWTSDMQDESPEEIKEAAAPKPAEEQKEI",binding result,IPK1-HIS,binds
